Source: patent US20240409935

T1: GFP-PACT, O75569
T1 chain: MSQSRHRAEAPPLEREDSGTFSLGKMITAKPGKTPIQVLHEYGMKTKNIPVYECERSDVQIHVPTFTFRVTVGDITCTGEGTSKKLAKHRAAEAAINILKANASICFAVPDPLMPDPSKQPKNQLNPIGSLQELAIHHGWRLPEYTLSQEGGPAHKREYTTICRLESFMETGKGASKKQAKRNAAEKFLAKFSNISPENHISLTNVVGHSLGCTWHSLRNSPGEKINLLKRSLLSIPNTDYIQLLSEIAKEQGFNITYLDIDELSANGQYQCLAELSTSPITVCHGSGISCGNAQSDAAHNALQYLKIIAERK

T2: endogenous PACT, O75569
T2 chain: T1 chain

B1: endogenous PKR (protein)
chain: AGDLSAGFFMEELNTYRQKQGVVLKYQELPNSGPPHDRRFTFQVIIDGREFPEGEGRSKKEAKNAAAKLAVEILNKEKKAVSPLLLTTTNSSEGLSMGNYIGLINRIAQKKRLTVNYEQCASGVHGPEGFHYKCKMGQKEYSIGTGSTKQEAKQLAAKLAYLQILSEETSVKSDYLSSGSFATTCESQSNSLVTSTLASESSSEGDFSADTSEINSNSDSLNSSSLLMNGLRNNQRKAKRSLAPRFDLPDMKETKYTVDKRFGMDFKEIELIGSGGFGQVFKAKHRIDGKTYVIKRVKYNNEKAEREVKALAKLDHVNIVHYNGCWDGFDYDPETSDDSLESSDYDPENSKNSSRSKTKCLFIQMEFCDKGTLEQWIEKRRGEKLDKVLALELFEQITKGVDYIHSKKLIHRDLKPSNIFLVDTKQVKIGDFGLVTSLKNDGKRTRSKGTLRYMSPEQISSQDYGKEVDLYALGLILAELLHVCDTAFETSKFFTDLRDGIISDIFDKKEKTLLQKLLSKKPEDRPNTSEILRTLTVWKKSPEKNERHTC
B2: FLAG-PKR (protein)
chain: MAGDLSAGFFMEELNTYRQKQGVVLKYQELPNSGPPHDRRFTFQVIIDGREFPEGEGRSKKEAKNAAAKLAVEILNKEKKAVSPLLLTTTNSSEGLSMGNYIGLINRIAQKKRLTVNYEQCASGVHGPEGFHYKCKMGQKEYSIGTGSTKQEAKQLAAKLAYLQILSEETSVKSDYLSSGSFATTCESQSNSLVTSTLASESSSEGDFSADTSEINSNSDSLNSSSLLMNGLRNNQRKAKRSLAPRFDLPDMKETKYTVDKRFGMDFKEIELIGSGGFGQVFKAKHRIDGKTYVIKRVKYNNEKAEREVKALAKLDHVNIVHYNGCWDGFDYDPETSDDSLESSDYDPENSKNSSRSKTKCLFIQMEFCDKGTLEQWIEKRRGEKLDKVLALELFEQITKGVDYIHSKKLIHRDLKPSNIFLVDTKQVKIGDFGLVTSLKNDGKRTRSKGTLRYMSPEQISSQDYGKEVDLYALGLILAELLHVCDTAFETSKFFTDLRDGIISDIFDKKEKTLLQKLLSKKPEDRPNTSEILRTLTVWKKSPEKNERHTC

Columns and labels:
GFP-PACT, O75569 = molecular target: T1, GFP-PACT, O75569
endogenous PACT, O75569 = molecular target: T2, endogenous PACT, O75569

| Protein | PKR phosphorylation (GFP-PACT, O75569) | PKR phosphorylation (endogenous PACT, O75569) |
| --- | --- | --- |
| B1 | this was accompanied by an increase in PKR phosphorylation during lysosomal damage |  |
| B2 |  | increased PKR phosphorylation under the same conditions |
